Values belong to the binder of their own block, whether it stands above or below them.
How the values were obtained:
[1] = target: T1, cyno VISTA-ECD (cynomolgus VISTA extracellular domain with His tail) (cynomolgus macaque, UniProt Q9H7M9 33-193 (human entry)); assay: SPR, pH 6.0
T1 construct: also called cyVISTA-His
T1 chain: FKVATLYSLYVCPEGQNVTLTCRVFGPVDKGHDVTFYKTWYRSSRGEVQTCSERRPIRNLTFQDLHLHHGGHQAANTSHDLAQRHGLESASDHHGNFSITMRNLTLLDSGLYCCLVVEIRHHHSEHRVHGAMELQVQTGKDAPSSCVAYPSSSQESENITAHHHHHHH

[2] = target: T2, monovalent hVISTA-ECD (human VISTA extracellular domain with His tail) (human, UniProt Q9H7M9 33-193); assay: SPR, pH 6.0
T2 construct: analyte flowed over captured antibody; also called huVISTA-His

[3] = target: T1, cyno VISTA-ECD (cynomolgus VISTA …); assay: SPR, pH 7.4
[4] = target: T2, monovalent hVISTA-ECD (human VISTA …); assay: SPR, pH 7.4
[5] = target: T2, monovalent hVISTA-ECD (human VISTA …); assay: SPR, pH 6.0, average
Procedure: Binding of several preparations of each of the '029 progeny clones and of the parent '029 antibodies, formatted as IgG1.3 antibodies, to human VISTA at pH 6.0 and 7.4 was measured by Surface plasmon resonance (SPR). SPR analysis was performed to measure koff and KD binding affinity measurements for VISTA Abs at acidic and neutral pHs using a Biacore® T100 instrument (GE Healthcare). Protein A (ThermoFisher Scientific catalog #21181) was diluted to 20 ug/ml in 10 mM sodium acetate pH 4.5 and immobilized onto flow cells of a CM5 biosensor following the manufacturer's amine coupling protocol (GE Healthcare), targeting 2,000 RU immobilization density of Protein A per flow cell. SPR experiments were conducted at 37° C. using PBST (137 mM sodium chloride, 2.7 mM potassium chloride, 10 mM phosphate buffer, 0.05% Tween® 20) running buffer at pH 7.4 and 6.0. Antibodies were diluted to 25 nM in PBST pH 7.4, and were captured across active biosensor flow cells at 5 ul/min for 60 seconds. […] Two 15 second injections of 10 mM glycine pH 1.5 were used to regenerate the Protein A capture surface between assay cycles. Rate constants ka (kₒₙ) and kd (koff) were derived from reference flow cell and 0 nM blank-subtracted sensorgrams, and were fit to a 1:1 binding model in Biacore® T200 Evaluation Software v.2.0. The affinity constant, KD was calculated as the ratio of rate constants koff/kₒₙ for each VISTA antibody. […]

[6] = target: T2, monovalent hVISTA-ECD (human VISTA …); assay: SPR, pH 6.0; remark: listed apart in the source
Procedure: Binding of several preparations of each of the '029 progeny clones and of the parent '029 antibodies, formatted as IgG1.3 antibodies, to human VISTA at pH 6.0 and 7.4 was measured by Surface plasmon resonance (SPR). SPR analysis was performed to measure koff and KD binding affinity measurements for VISTA Abs at acidic and neutral pHs using a Biacore® T100 instrument (GE Healthcare). Protein A (ThermoFisher Scientific catalog #21181) was diluted to 20 ug/ml in 10 mM sodium acetate pH 4.5 and immobilized onto flow cells of a CM5 biosensor following the manufacturer's amine coupling protocol (GE Healthcare), targeting 2,000 RU immobilization density of Protein A per flow cell. SPR experiments were conducted at 37° C. using PBST (137 mM sodium chloride, 2.7 mM potassium chloride, 10 mM phosphate buffer, 0.05% Tween® 20) running buffer at pH 7.4 and 6.0. Antibodies were diluted to 25 nM in PBST pH 7.4, and were captured across active biosensor flow cells at 5 ul/min for 60 seconds. […] Two 15 second injections of 10 mM glycine pH 1.5 were used to regenerate the Protein A capture surface between assay cycles. Rate constants ka (kₒₙ) and kd (koff) were derived from reference flow cell and 0 nM blank-subtracted sensorgrams, and were fit to a 1:1 binding model in Biacore® T200 Evaluation Software v.2.0. The affinity constant, KD was calculated as the ratio of rate constants koff/kₒₙ for each VISTA antibody.
This initial campaign led to pH-independent VISTA.4 variants with near equivalent koff at pH 6 and pH 7. In order to obtain an antibody that binds to hVISTA with high affinity at pH 6.0 and low affinity at pH 7.0, a new library based on consensus sequence of pH-independent VISTA.4 variants was designed and constructed, with amino acid residues in the loops substituted for charge amino acid residues (see Example 9), and screened via yeast surface display (see Example 9). The library was analyzed as previously described (see Example 9) and selected variants were reformatted as IgG1.3 for further analysis (Tables 26 and 27). SPR analysis was conducted on these variants using the conditions previously described in Example 9.

[7] = target: T3, monovalent hVISTA-ECD (amino acids 32-193 of SEQ ID NO: 1 with a 7xHis tail) (human, UniProt Q9H7M9 33-193); assay: SPR 37C
T3 construct: analyte of the SPR assays; also called huVISTA-His; hVISTA-His
Procedure: For this assay, '029, '761 and '767 were reformatted as hIgG1f isotype and were expressed as both standard hIgG1f and in hIgG1f afucosylated formats to compare against the hIgG1.3f Fc. An SPR kinetics assay was conducted to measure koff and KD binding affinity measurements for VISTA Abs at acidic and physiological pH using a Biacore® T100 instrument (GE Healthcare). Protein A (ThermoFisher Scientific catalog #21181) was diluted to 20 μg/ml in 10 mM sodium acetate pH 4.5 and immobilized onto flow cells of a CM5 biosensor following the manufacturer's amine coupling protocol (GE Healthcare), targeting 2,000 RU immobilization density of Protein A per flow cell. […] Antibodies were diluted to 25 nM in PBST pH 7.4, and were captured across active biosensor flow cells at 5 ul/min for 45 seconds. […] Two 15 second injections of 10 mM glycine pH 1.5 were used to regenerate the Protein A capture surface between assay cycles. Rate constants ka (kₒₙ) and kd (koff) were derived from reference flow cell and 0 nM blank-subtracted sensorgrams, and were fit to a 1:1 binding model in Biacore® T200 Evaluation Software v.2.0. The affinity constant, KD was calculated as the ratio of rate constants koff/kₒₙ for each VISTA antibody. Ratios of koff and KD at pH 7.4/pH 6.0 were calculated to compare off-rate and affinity improvement at acidic pH relative to physiological pH.

[8] = target: T3, monovalent hVISTA-ECD (amino acids …); assay: SPR 37C pH 6.0
[9] = target: T4, cyno VISTA-ECD (His tag) (cynomolgus macaque, UniProt Q9H7M9 33-193 (human entry)); assay: SPR 37C pH 6.0
T4 construct: also called cyVISTA-His
T4 chain: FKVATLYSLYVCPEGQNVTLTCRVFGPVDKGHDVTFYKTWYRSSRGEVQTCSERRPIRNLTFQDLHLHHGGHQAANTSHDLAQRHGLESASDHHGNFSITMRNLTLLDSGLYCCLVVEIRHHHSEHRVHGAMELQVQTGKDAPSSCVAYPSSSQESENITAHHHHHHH

[10] = target: BSA (Calbiochem catalog #126593) (UniProt P02769 25-607); assay: SPR 25C pH 6.0 and 7.4
Sequence of BSA (Calbiochem catalog #126593) (P02769 25-607 limits assumed): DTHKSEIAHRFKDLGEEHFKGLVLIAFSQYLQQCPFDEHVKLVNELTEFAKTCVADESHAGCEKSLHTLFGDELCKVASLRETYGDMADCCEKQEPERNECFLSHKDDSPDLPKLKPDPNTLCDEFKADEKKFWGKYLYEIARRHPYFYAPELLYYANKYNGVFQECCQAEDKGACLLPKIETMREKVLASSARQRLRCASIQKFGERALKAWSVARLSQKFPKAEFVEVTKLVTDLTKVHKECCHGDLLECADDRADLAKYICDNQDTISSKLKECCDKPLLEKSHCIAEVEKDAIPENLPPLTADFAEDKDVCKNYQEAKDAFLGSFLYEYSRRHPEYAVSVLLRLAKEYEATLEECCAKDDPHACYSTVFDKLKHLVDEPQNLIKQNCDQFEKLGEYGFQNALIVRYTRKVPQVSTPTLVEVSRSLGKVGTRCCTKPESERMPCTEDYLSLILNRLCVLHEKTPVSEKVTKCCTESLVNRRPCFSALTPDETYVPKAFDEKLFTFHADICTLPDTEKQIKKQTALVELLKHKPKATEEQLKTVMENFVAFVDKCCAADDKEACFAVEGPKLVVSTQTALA
Procedure: (§1) The binding specificity of the '029, '761 and '767 clones to VISTA and to other high pI proteins was evaluated by SPR at neutral and acidic pH using a Biacore® T100 instrument (GE Healthcare). Protein A (ThermoFisher Scientific catalog #21181) was diluted to 20 ug/ml in 10 mM sodium acetate pH 4.5 and immobilized onto flow cells of a CM3 biosensor following the manufacturer's amine coupling protocol (GE Healthcare), targeting 800 RU immobilization density of Protein A per flow cell. SPR experiments were conducted at 25° C. using PBST (137 mM sodium chloride, 2.7 mM potassium chloride, 10 mM phosphate buffer, 0.05% Tween 20) running buffer at pH 7.4 and 6.0. Antibodies (formatted as IgG1.3 antibodies) were diluted to 50 nM in PBST pH 7.4, and were captured across active biosensor flow cells at 5 ul/min for 60 seconds. […] Two 15 second injections of 10 mM glycine pH 1.5 were used to regenerate the Protein A capture surface between assay cycles. Reference flow cell and 0 nM blank-subtracted sensorgrams were inspected using Biacore® T200 Evaluation Software v.2.0. The results are shown in […]

[11] = target: avidin (ThermoFisher Scientific catalog #21128) (UniProt P02701 25-152); assay: SPR 25C pH 6.0 and 7.4
Sequence of avidin (ThermoFisher Scientific catalog #21128) (P02701 25-152 limits assumed): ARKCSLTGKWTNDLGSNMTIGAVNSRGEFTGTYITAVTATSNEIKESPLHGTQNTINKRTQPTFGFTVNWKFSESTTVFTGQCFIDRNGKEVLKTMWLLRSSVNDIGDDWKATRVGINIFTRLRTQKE
Procedure: as §1

[12] = target: T3, monovalent hVISTA-ECD (amino acids …); assay: SPR 37C pH 7.4
[13] = target: T4, cyno VISTA-ECD (His tag); assay: SPR 37C pH 7.4
[14] = target: T3, monovalent hVISTA-ECD (amino acids …); assay: SPR 37C; remark: listed apart in the source
[15] = target: T4, cyno VISTA-ECD (His tag); assay: SPR 37C

B2: P1-070976 (41F11_VH_T28P/Y50W/S55E/D95H/L96E/P97E/Y100E; Vk_A64G) (antibody, human IgG1, kappa, V domains shown)
VH: QVQLVESGGGLVKPGGSLRLSCAASGFPFSDYYMSWIRQAPGKGLEWVSWISNSGEPIYYADSVKGRFTISRDNAKNSLYLQMNSLRAEDTAVYYCARHEEGWEFDLWGRGTLVTVSS
VL: EIVLTQSPATLSLSPGERATLSCRASQSVSSYLAWYQQKPGQAPRLLIYDASNRATGIPARFSGSGSGTDFTLTISSLEPEDFAVYYCQQRNNWPRTFGQGTKVEIKR
notes: IgG1.3; also called P1-070976-7; acidic pH selective VISTA.4 progeny
- Kd [1]: 0.024 µM
- koff [1]: 0.0038 s⁻¹
- kon [1]: 160000 M⁻¹ s⁻¹
- Kd [2]: 0.013 µM
- koff [2]: 0.0028 s⁻¹
- kon [2]: 230000 M⁻¹ s⁻¹
- Kd [5]: 0.023 µM
- koff [5]: 0.0026 s⁻¹
- kon [5]: 110000 M⁻¹ s⁻¹
- Kd [6]: 0.015 µM
- koff [6]: 0.0028 s⁻¹
- kon [6]: 190000 M⁻¹ s⁻¹
- Kd [3]: 5.9 µM
- koff [3]: 0.026 s⁻¹
- kon [3]: 4400 M⁻¹ s⁻¹
- Kd [4]: 2.3 µM
- koff [4]: 0.14 s⁻¹
- kon [4]: 61000 M⁻¹ s⁻¹

B3: P1-068761.IgG1.3 (antibody)
heavy: EVQLVESGGGLVQPGKSLRLSCAASGFTLEDEAMHWVRQAPGKGLEWVSGINWNSEEIGYADSVKGRFTISRDNAKNSLYLQMNSLRTEDTALYYCAKVPGYSHGWIDAEDVWGQGTMVTVSSASTKGPSVFPLAPSSKSTSGGTAALGCLVKDYFPEPVTVSWNSGALTSGVHTFPAVLQSSGLYSLSSVVTVPSSSLGTQTYICNVNHKPSNTKVDKRVEPKSCDKTHTCPPCPAPEAEGAPSVFLFPPKPKDTLMISRTPEVTCVVVDVSHEDPEVKFNWYVDGVEVHNAKTKPREEQYNSTYRVVSVLTVLHQDWLNGKEYKCKVSNKALPAPIEKTISKAKGQPREPQVYTLPPSREEMTKNQVSLTCLVKGFYPSDIAVEWESNGQPENNYKTTPPVLDSDGSFFLYSKLTVDKSRWQQGNVFSCSVMHEALHNHYTQKSLSLSPG
light: not shown
notes: also called P1-068761 hIgG1.3f
- fold faster koff at pH 6.9 compared to pH 6.0 [7]: ≥ 10 fold
- fold lower affinity at pH 6.45 compared to pH 6.0 [7]: ≥ 10 fold
- fold lower affinity at pH 6.9 compared to pH 6.0 [7]: ≥ 100 fold
- fold lower affinity at pH 7.4 compared to pH 6.0 [7]: ≥ 1000 fold
- fold weaker KD at pH 6.9 compared to pH 6.0 [7]: ≥ 100 fold
- selectivity for pH 6 over pH 7.4 in KD [7]: > 2000 fold
- selectivity for pH 6 over pH 7.4 in koff [7]: > 10 fold
- Kd [8]: 0.0041 µM
- kon [8]: 350000 M⁻¹ s⁻¹
- Kd [9]: 0.0079 µM
- koff [9]: 0.0017 s⁻¹
- kon [9]: 210000 M⁻¹ s⁻¹
- binding result [10]: no binding (tested: <=10 RU, 100-10 nM)
- binding result [11]: no binding (tested: <=10 RU, 100-10 nM)
- Kd [12]: 8.7 µM
- koff [12]: 0.037 s⁻¹
- kon [12]: 4300 M⁻¹ s⁻¹
- Kd [13]: 5.5 µM
- koff [13]: 0.036 s⁻¹
- kon [13]: 6500 M⁻¹ s⁻¹
- KD ratio (7.4/6) [14]: 2120
- kd ratio (7.4/6) [14]: 26.4
- KD ratio (7.4/6) [15]: 696
- kd ratio (7.4/6) [15]: 21.2

Continued, values first:

- Kd [1]: 0.0006 µM
- koff [1]: 0.0016 s⁻¹
- kon [1]: 2.7e+06 M⁻¹ s⁻¹
- Kd [2]: 0.00035 µM
- koff [2]: 0.0015 s⁻¹
- kon [2]: 4.2e+06 M⁻¹ s⁻¹
- Kd [3]: 0.0019 µM
- koff [3]: 0.00068 s⁻¹
- kon [3]: 350000 M⁻¹ s⁻¹
- Kd [4]: 0.0025 µM
- koff [4]: 0.00079 s⁻¹
- kon [4]: 320000 M⁻¹ s⁻¹
B1: P1-072315 (41F11_VH_T28P/Y50W/S55E/L96E/Y100E VK_A64G) (antibody, V domains shown)
VH: QVQLVESGGGLVKPGGSLRLSCAASGFPFSDYYMSWIRQAPGKGLEWVSWISNSGEPIYYADSVKGRFTISRDNAKNSLYLQMNSLRAEDTAVYYCARDEPGWEFDLWGRGTLVTVSS
VL: EIVLTQSPATLSLSPGERATLSCRASQSVSSYLAWYQQKPGQAPRLLIYDASNRATGIPARFSGSGSGTDFTLTISSLEPEDFAVYYCQQRNNWPRTFGQGTKVEIK
notes: Same variable-region description as P1-065333 under another ID; also called P1-072315-1

- binding result [10]: no binding (tested: <=10 RU, 100-10 nM)
- binding result [11]: no binding (tested: <=10 RU, 100-10 nM)
B4: P1-068767.IgG1.3 (antibody, V domains shown)
VH: EVQLVESGGGLVQPGKSLRLSCAASGFTLEDYAMHWVRQAPGKGLEWVSGIDWNSENIGYADSVKGRFTISRDNAKNSLYLQMNSLRTEDTALYYCAKVPGYSGGWIDAEDDWGQGTMVTVSS
VL: not shown
notes: also called P1-068767 hIgG1.3f; VISTA.18
